Results as given in patent publication US20220119534A1 (DRAGONFLY THERAPEUTICS, published 2022).
Blank lines part the entries; values can stand above or below the binder they belong to.

How the values were obtained:
mFc-hNKG2D [1] = target: T1, mFc-hNKG2D (human, UniProt P26718 73-216); test: SPR Biacore 8K 37 C; mFc-hNKG2D captured on anti-mFc chip, TriNKET as analyte; 1:1 kinetic fit; average of 4
T1 construct: extracellular domain; Made in house (Dragonfly Tx); the order of tag and ECD follows the name mFc-hNKG2D; also called mFc-tagged human NKG2D; not shown: mouse Fc tag
T1 sequence (looked up): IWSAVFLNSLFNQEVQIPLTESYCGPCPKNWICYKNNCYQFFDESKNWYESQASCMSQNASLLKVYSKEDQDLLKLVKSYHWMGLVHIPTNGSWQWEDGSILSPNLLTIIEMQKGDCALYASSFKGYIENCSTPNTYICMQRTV

mFc-hNKG2D [2] = target: T1, mFc-hNKG2D; test: SPR Biacore 8K 37 C; mFc-hNKG2D captured on anti-mFc chip, TriNKET as analyte; 1:1 kinetic fit; control sample
Procedure: Association was monitored for 60 seconds and dissociation was monitored for 60 seconds. Surfaces were regenerated between cycles with three pulses of 10 mM glycine-HCl, pH 1.7 injected for 20 seconds at 100 μL/min. HBS-EP+ (1×) buffer was used throughout the experiment. Data were analyzed using Biacore 8K Insight evaluation software (GE Healthcare).

Human CLEC12A-His [3] = target: T2, Human CLEC12A-His (human, UniProt Q5QGZ9 65-265); test: SPR Biacore 8K 37 C; TriNKET captured on anti-hFc chip, hCLEC12A-His as analyte; 1:1 fit; after 2 wks 2-8 C in CST pH 7.0, n=2
T2 construct: Recombinant soluble protein made in house (Dragonfly Tx); The hCLEC12A spot of the HuProt array is written under this molecule as well; also called hCLEC12A-His; hCLEC12A; not shown: His tag
T2 sequence: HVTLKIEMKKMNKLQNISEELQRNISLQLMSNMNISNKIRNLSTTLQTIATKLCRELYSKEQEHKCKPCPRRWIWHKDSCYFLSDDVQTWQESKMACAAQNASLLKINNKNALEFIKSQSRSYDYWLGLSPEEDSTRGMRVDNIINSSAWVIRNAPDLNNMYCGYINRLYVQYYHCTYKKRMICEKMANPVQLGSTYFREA

Human CLEC12A-His [4] = target: T3, Human CLEC12A-His (human, UniProt Q5QGZ9 65-265); test: SPR, 37 C, AB0192 captured, hCLEC12A-His analyte; average of 3 replicates
T3 construct: Recombinant soluble protein made in house; also called hCLEC12A-His; hCLEC12A; not shown: His tag
T3 sequence: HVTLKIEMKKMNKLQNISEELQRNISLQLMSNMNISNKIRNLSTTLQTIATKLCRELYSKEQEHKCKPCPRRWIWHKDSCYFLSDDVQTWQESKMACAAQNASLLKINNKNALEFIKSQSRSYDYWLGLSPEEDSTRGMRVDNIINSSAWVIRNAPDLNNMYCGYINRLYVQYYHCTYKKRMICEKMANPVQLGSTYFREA

[5] = target: T4, human CLEC12A expressed on cells (human, UniProt Q5QGZ9 1-265); test: flow cytometry, HL60
T4 construct: Transduced isogenic cells or endogenous expression on AML cells; also called RMA-hCLEC12A; Ba/F3-hCLEC12A
T4 sequence: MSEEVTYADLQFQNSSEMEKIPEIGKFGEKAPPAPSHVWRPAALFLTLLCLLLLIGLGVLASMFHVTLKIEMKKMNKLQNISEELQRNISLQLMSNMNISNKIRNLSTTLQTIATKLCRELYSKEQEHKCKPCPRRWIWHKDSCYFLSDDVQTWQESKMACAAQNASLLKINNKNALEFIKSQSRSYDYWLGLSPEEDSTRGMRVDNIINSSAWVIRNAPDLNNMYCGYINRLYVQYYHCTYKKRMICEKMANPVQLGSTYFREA

koff (mFc-hNKG2D [1]): 0.13 s⁻¹
kon (mFc-hNKG2D [1]): 180000 M⁻¹ s⁻¹
Kd (mFc-hNKG2D [2]): 760 nM
koff (mFc-hNKG2D [2]): 0.129 s⁻¹
kon (mFc-hNKG2D [2]): 170000 M⁻¹ s⁻¹
Kd (Human CLEC12A-His [3]): 0.89 nM
koff (Human CLEC12A-His [3]): 0.0006 s⁻¹
kon (Human CLEC12A-His [3]): 672000 M⁻¹ s⁻¹
B1: F3'-1602 TriNKET (bispecific antibody, human IgG1, kappa)
chain: QLQLQESGPGLVKPSETLSLTCTVSGFSLTNYGLHWIRQPPGKCLEWIGVIWSGGKTDYNPSLKSRVTISKDTSKNQFSLKLSSVQAADTAVYYCAKYDYDDSLDYWGQGTLVTVSSGGGGSGGGGSGGGGSGGGGSDIQMTQSPSSLSASVGDRVTITCHASQNINFWLSWYQQKPGKAPKLLIYEASNLHTGVPSRFSGSGSGTRFTLTISSLQPEDIATYYCQQSHSYPLTFGCGTKLEIKGSDKTHTCPPCPAPELLGGPSVFLFPPKPKDTLMISRTPEVTCVVVDVSHEDPEVKFNWYVDGVEVHNAKTKPREEQYNSTYRVVSVLTVLHQDWLNGKEYKCKVSNKALPAPIEKTISKAKGQPREPRVYTLPPCRDELTKNQVSLTCLVKGFYPSDIAVEWESNGQPENNYKTTPPVLVSDGSFTLYSKLTVDKSRWQQGNVFSCSVMHEALHNHYTQKSLSLSPG
heavy: EVQLVESGGGLVKPGGSLRLSCAASGFTFSSYSMNWVRQAPGKGLEWVSSISSSSSYIYYADSVKGRFTISRDNAKNSLYLQMNSLRAEDTAVYYCARGAPIGAAAGWFDPWGQGTLVTVSSASTKGPSVFPLAPSSKSTSGGTAALGCLVKDYFPEPVTVSWNSGALTSGVHTFPAVLQSSGLYSLSSVVTVPSSSLGTQTYICNVNHKPSNTKVDKKVEPKSCDKTHTCPPCPAPELLGGPSVFLFPPKPKDTLMISRTPEVTCVVVDVSHEDPEVKFNWYVDGVEVHNAKTKPREEQYNSTYRVVSVLTVLHQDWLNGKEYKCKVSNKALPAPIEKTISKAKGQPREPQVCTLPPSRDELTENQVSLTCLVKGFYPSDIAVEWESNGQPENNYKTTPPVLDSDGSFFLYSWLTVDKSRWQQGNVFSCSVMHEALHNHYTQKSLSLSPG
light: DIQMTQSPSSVSASVGDRVTITCRASQGISSWLAWYQQKPGKAPKLLIYAASSLQSGVPSRFSGSGSGTDFTLTISSLQPEDFATYYCQQGVSFPRTFGGGTKVEIKRTVAAPSVFIFPPSDEQLKSGTASVVCLLNNFYPREAKVQWKVDNALQSGNSQESVTEQDSKDSTYSLSSTLTLSKADYEKHKVYACEVTHQGLSSPVTKSFNRGEC
notes: Trispecific F3' format: CLEC12A scFv-Fc paired with NKG2D Fab-Fc; Stressed and control samples of the stability studies are the same molecule; also called AB0237

Kd (Human CLEC12A-His [4]): 1.81 nM
koff (Human CLEC12A-His [4]): 0.0014 s⁻¹
kon (Human CLEC12A-His [4]): 776000 M⁻¹ s⁻¹
B2: AB0192 TriNKET (other)
chain: EVQLVESGGGVVQPGGSLRLSCAASGFTFNAFGMHWVRQAPGKCLEWVAFISSGSTSIYYANTVKGRFTISRDNSKNTLYLQMNSLRAEDTAVYYCARDGYPTGGAMDYWGQGTSVTVSSGGGGSGGGGSGGGGSGGGGSDIQMTQSPSSLSASVGDRVTITCKASQDIYNYLSWFQQKPGKAPKPLIYRANILVSGVPSRFSGSGSGQDYTFTISSLQPEDIATYYCLQFDAFPFTFGCGTKLEIKGSDKTHTCPPCPAPELLGGPSVFLFPPKPKDTLMISRTPEVTCVVVDVSHEDPEVKFNWYVDGVEVHNAKTKPREEQYNSTYRVVSVLTVLHQDWLNGKEYKCKVSNKALPAPIEKTISKAKGQPREPRVYTLPPCRDELTKNQVSLTCLVKGFYPSDIAVEWESNGQPENNYKTTPPVLVSDGSFTLYSKLTVDKSRWQQGNVFSCSVMHEALHNHYTQKSLSLSPG
heavy: EVQLVESGGGLVKPGGSLRLSCAASGFTFSSYSMNWVRQAPGKGLEWVSSISSSSSYIYYADSVKGRFTISRDNAKNSLYLQMNSLRAEDTAVYYCARGAPIGAAAGWFDPWGQGTLVTVSSASTKGPSVFPLAPSSKSTSGGTAALGCLVKDYFPEPVTVSWNSGALTSGVHTFPAVLQSSGLYSLSSVVTVPSSSLGTQTYICNVNHKPSNTKVDKKVEPKSCDKTHTCPPCPAPELLGGPSVFLFPPKPKDTLMISRTPEVTCVVVDVSHEDPEVKFNWYVDGVEVHNAKTKPREEQYNSTYRVVSVLTVLHQDWLNGKEYKCKVSNKALPAPIEKTISKAKGQPREPQVCTLPPSRDELTENQVSLTCLVKGFYPSDIAVEWESNGQPENNYKTTPPVLDSDGSFFLYSWLTVDKSRWQQGNVFSCSVMHEALHNHYTQKSLSLSPG
light: DIQMTQSPSSVSASVGDRVTITCRASQGISSWLAWYQQKPGKAPKLLIYAASSLQSGVPSRFSGSGSGTDFTLTISSLQPEDFATYYCQQGVSFPRTFGGGTKVEIKRTVAAPSVFIFPPSDEQLKSGTASVVCLLNNFYPREAKVQWKVDNALQSGNSQESVTEQDSKDSTYSLSSTLTLSKADYEKHKVYACEVTHQGLSSPVTKSFNRGEC
notes: the condition stands under assay; also called AB0192 Lot AB0192-005

EC50 [5]: 2.2 nM
B3: F3'-1602 TriNKET (other)
chain: QLQLQESGPGLVKPSETLSLTCTVSGFSLTNYGLHWIRQPPGKCLEWIGVIWSGGKTDYNPSLKSRVTISKDTSKNQFSLKLSSVQAADTAVYYCAKYDYDDSLDYWGQGTLVTVSSGGGGSGGGGSGGGGSGGGGSDIQMTQSPSSLSASVGDRVTITCHASQNINFWLSWYQQKPGKAPKLLIYEASNLHTGVPSRFSGSGSGTRFTLTISSLQPEDIATYYCQQSHSYPLTFGCGTKLEIKGSDKTHTCPPCPAPELLGGPSVFLFPPKPKDTLMISRTPEVTCVVVDVSHEDPEVKFNWYVDGVEVHNAKTKPREEQYNSTYRVVSVLTVLHQDWLNGKEYKCKVSNKALPAPIEKTISKAKGQPREPRVYTLPPCRDELTKNQVSLTCLVKGFYPSDIAVEWESNGQPENNYKTTPPVLVSDGSFTLYSKLTVDKSRWQQGNVFSCSVMHEALHNHYTQKSLSLSPG
heavy: EVQLVESGGGLVKPGGSLRLSCAASGFTFSSYSMNWVRQAPGKGLEWVSSISSSSSYIYYADSVKGRFTISRDNAKNSLYLQMNSLRAEDTAVYYCARGAPIGAAAGWFDPWGQGTLVTVSSASTKGPSVFPLAPSSKSTSGGTAALGCLVKDYFPEPVTVSWNSGALTSGVHTFPAVLQSSGLYSLSSVVTVPSSSLGTQTYICNVNHKPSNTKVDKKVEPKSCDKTHTCPPCPAPELLGGPSVFLFPPKPKDTLMISRTPEVTCVVVDVSHEDPEVKFNWYVDGVEVHNAKTKPREEQYNSTYRVVSVLTVLHQDWLNGKEYKCKVSNKALPAPIEKTISKAKGQPREPQVCTLPPSRDELTENQVSLTCLVKGFYPSDIAVEWESNGQPENNYKTTPPVLDSDGSFFLYSWLTVDKSRWQQGNVFSCSVMHEALHNHYTQKSLSLSPG
light: DIQMTQSPSSVSASVGDRVTITCRASQGISSWLAWYQQKPGKAPKLLIYAASSLQSGVPSRFSGSGSGTDFTLTISSLQPEDFATYYCQQGVSFPRTFGGGTKVEIKRTVAAPSVFIFPPSDEQLKSGTASVVCLLNNFYPREAKVQWKVDNALQSGNSQESVTEQDSKDSTYSLSSTLTLSKADYEKHKVYACEVTHQGLSSPVTKSFNRGEC
notes: CLEC12A scFv-Fc, NKG2D A49MI Fab-Fc, human IgG1 Fc; also called AB0237
